Data from paper PMC12615815, “GroEL/ES chaperonin unfolds then encapsulates a nascent protein on the ribosome” (Nature Communications, 2025).

What was measured:
[1] = target: RNC_(1-510mut): stalled 70S ribosome:nascent chain complex with β-galactosidase 1-510 carrying I141N and G353D (E. coli); assay: co-sedimentation; RNC with GroEL, no GroES and no ATP/BeFx; pellet quantified by iBAQ mass spectrometry, normalised to the average of the ribosomal proteins; n = 3
[2] = target: RNC_(1-510mut): stalled 70S ribosome:nascent chain complex with β-galactosidase 1-510 carrying I141N and G353D (E. coli); assay: co-sedimentation; RNC first incubated with GroEL and GroES (20 min, 30 °C), then 1 mM ATP, 1 mM BeSO4, 10 mM NaF (10 min, 30 °C); 35% sucrose cushion; pellet by immunoblot (GroEL, GroES, S2) and iBAQ mass spectrometry
[3] = target: T1, Ribosomal stalk protein L7/L12 (E. coli, UniProt P0A7K2 1-121); assay: cross-linking; XL-MS: RNC_(1-510mut) with 5 µM GroEL and 10 µM GroES, then 1 mM ATP, 1 mM BeSO4, 10 mM NaF; 1 mM DSBU 1 h at 25 °C; conditions: both partners purified
T1 construct: ribosomal protein L7/L12, E. coli, as part of the ribosome; Cross-linked while part of the 70S ribosome or RNC; also called stalk complex; source: endogenous, in E. coli 70S ribosomes (bought: NEB) and in RNCs purified from E. coli

## GroEL (V381W, A384W, V387W) (from UniProt P0A6F5 2-525) (natural protein)
[1]
  stoichiometry N (GroEL subunits per ribosome): 9.8
[2]
  stoichiometry N (GroEL subunits per ribosome): 6.7

B1: GroES (L49W) (natural protein, E. coli, UniProt P0A6F9 1-97, looked up)
chain: MNIRPLHDRVIVKRKEVETKSAGGIVLTGSAAAKSTRGEVLAVGNGRIWENGEVKPLDVKVGDIVIFNDGYGVKSEKIDNEEVLIMSESDILAIVEA
notes: GroES, E. coli co-chaperonin subunit (10.5 kDa as printed); tryptophan mutant used for quantification; also called GroES 7-mer; source: E. coli BL21(DE3), purified (StrepTactin, 3C cleavage, Superdex 200, GSTrap); not shown: double StrepII, N-terminal, cleaved
[3]
  binding result: binds
